Sequences and labels used below:
B1: LINE1-full (parent)
chain: UACGUAGGUGGUUUUCCCCUGAUAGUGCUAAGGGGGCCUGGAAGUUUGGACUGGGCAGAGCUCAACACAGCGUGGCAAAGUGGCUGUGGCUAGACUGCCUCUCUGGAUUCCUCGUCACUCAGCAGGGCAUCUCUGAGAGAAAUGCC

The variants in the data set derive from B1. Put plainly: self-cleavage, relative activity (ratio to wild type); higher = more cleavage; in vitro, sequencing; the parent is a self-cleaving ribozyme.
For C61U U134G, the self-cleavage came out at 0.

Consider A64C A94G, for which the self-cleavage came out at 0.14.

On to U62A U143A, for which the self-cleavage turned out to be 0.04.

In the case of C61U U102C, the self-cleavage stood at 0.03.

On to U62C C63A, for which the self-cleavage stood at 0.01.

As for U62C C63U, the self-cleavage was 0.07.

A59U U85C: the self-cleavage is 0.16.

On to A59U U85A, for which the self-cleavage amounted to 0.1.

G60A U143C: the self-cleavage was found to be 0.

Consider A59G U81G, for which the self-cleavage stood at 0.09.

As for U62G A78G, the self-cleavage is 0.06.

With A59U A78U, the self-cleavage was 1.43.

With A59U A78G, the self-cleavage was determined as 0.68.

On to A59G U100A, for which the self-cleavage was found to be 0.07.

Consider A59G U100C, for which the self-cleavage came out at 0.16.

Take G60A C111U: the self-cleavage stood at 0.04.

Regarding G60A C111G, the self-cleavage is 0.02.

For the variant U62A A121G, the self-cleavage came to 0.06.

With U62G G82U, the self-cleavage was determined as 0.03.

With U62G A138C, the self-cleavage was 0.09.

As for A59U, the self-cleavage stood at 0.8.

With U62A U119C, the self-cleavage worked out at 0.03.

Regarding U62A C116A, the self-cleavage amounted to 0.05.

Regarding C63U A136G, the self-cleavage was found to be 0.34.

C63A U119C: the self-cleavage amounted to 0.02.

As for A59G G60C, the self-cleavage was found to be 0.07.

U62A A79G: the self-cleavage turned out to be 0.04.

As for U62A U134C, the self-cleavage came to 0.05.

On to U62A U134G, for which the self-cleavage was determined as 0.1.

Take A59G C84A: the self-cleavage was determined as 0.04.

For the variant A59G C123U, the self-cleavage was found to be 0.05.

Regarding C61U A65G, the self-cleavage is 0.06.

Consider C63U C128U, for which the self-cleavage turned out to be 0.23.

With U62A G127U, the self-cleavage was determined as 0.02.

Regarding G60A U112A, the self-cleavage came out at 0.04.

On to C61G U100C, for which the self-cleavage was 0.06.

With U62C A77C, the self-cleavage worked out at 0.05.

Regarding A59G G125C, the self-cleavage worked out at 0.2.

Turning to A59G G80A, the self-cleavage worked out at 0.08.

Regarding U62C U96G, the self-cleavage worked out at 0.

For the variant U62C U96A, the self-cleavage worked out at 0.03.

Regarding C63A U87A, the self-cleavage was determined as 0.04.

As to C63A U87C, the self-cleavage is 0.06.

For C63U U104C, the self-cleavage amounted to 0.1.

Consider A59G U108A, for which the self-cleavage is 0.11.

As for A59G U108C, the self-cleavage turned out to be 0.11.

Consider U62C A129C, for which the self-cleavage is 0.19.

With C63U U102C, the self-cleavage was found to be 0.28.

Turning to C63U U102A, the self-cleavage worked out at 0.33.

Take C61U G105A: the self-cleavage amounted to 0.02.

In the case of U62G A65U, the self-cleavage worked out at 0.16.

Take A59G U109A: the self-cleavage turned out to be 0.09.

In the case of U62C A124G, the self-cleavage worked out at 0.08.

As to U62A A140U, the self-cleavage turned out to be 0.03.

As to U62A A140G, the self-cleavage is 0.04.

With A59G C90U, the self-cleavage came out at 0.03.

On to A64C A69G, for which the self-cleavage stood at 0.35.

With C61U U85A, the self-cleavage was 0.03.

Consider U62C G125A, for which the self-cleavage amounted to 0.06.

Regarding U62C A136G, the self-cleavage stood at 0.06.

With C61U A129U, the self-cleavage stood at 0.02.

With U62C U91A, the self-cleavage was 0.08.

For U62C U91C, the self-cleavage stood at 0.04.

As to U62G A69U, the self-cleavage was 0.05.

Take U62C A69G: the self-cleavage was 0.06.

Consider U62C C71U, for which the self-cleavage was 0.05.

Regarding C61A A78G, the self-cleavage stood at 0.04.

A59U U115C: the self-cleavage worked out at 1.34.

As to U62G, the self-cleavage was determined as 0.05.

In the case of U62A, the self-cleavage was 0.04.

For the variant U62C, the self-cleavage came to 0.05.

U62C G139A: the self-cleavage was 0.03.

With C63U A124G, the self-cleavage came out at 0.09.

Regarding U62A C71U, the self-cleavage is 0.

With U62A C71G, the self-cleavage came out at 0.05.

With G60A U96A, the self-cleavage worked out at 0.03.

In the case of G60A U96C, the self-cleavage was determined as 0.01.

In the case of C63U U130C, the self-cleavage is 0.39.

For the variant C63U U115C, the self-cleavage worked out at 0.32.

With G60A G105U, the self-cleavage was 0.01.

In the case of U62C G93A, the self-cleavage was 0.06.

U62A U100A: the self-cleavage came to 0.05.

For U62A U100C, the self-cleavage was 0.23.

Turning to C61U U115C, the self-cleavage turned out to be 0.02.

For A59G U102C, the self-cleavage is 0.1.

As for A59G U102A, the self-cleavage is 0.

Take U62C G72U: the self-cleavage stood at 0.03.

For the variant U62C G72C, the self-cleavage was 0.03.

Regarding U62C U102C, the self-cleavage was 0.06.

Regarding C61G U85C, the self-cleavage came out at 0.15.

As to A59G U115C, the self-cleavage is 0.07.

For A59G U115A, the self-cleavage is 0.11.

With A59G U134C, the self-cleavage amounted to 0.15.

As for G60A C61G, the self-cleavage stood at 0.04.

Consider A59U U130C, for which the self-cleavage was 0.63.

On to A59G A117C, for which the self-cleavage was determined as 0.2.

As to A59G A117G, the self-cleavage is 0.18.

With C61U C76U, the self-cleavage came to 0.04.

As to A59G G135A, the self-cleavage amounted to 0.08.

In the case of C63A A117G, the self-cleavage was found to be 0.08.

For the variant A64C U81C, the self-cleavage stood at 0.38.

Regarding C61U U96C, the self-cleavage came out at 0.03.

As to C63A A64G, the self-cleavage turned out to be 0.02.

In the case of U62A A107G, the self-cleavage was found to be 0.06.

For the variant U62C U108C, the self-cleavage stood at 0.05.

Consider U62C U108G, for which the self-cleavage amounted to 0.

In the case of A64C C103A, the self-cleavage came out at 0.29.

G60U A121C: the self-cleavage was determined as 0.03.

For the variant G60A U109C, the self-cleavage is 0.02.

For the variant G60A A124G, the self-cleavage stood at 0.05.

U62C C120U: the self-cleavage was found to be 0.06.

Turning to C61U U104A, the self-cleavage was 0.02.

On to U62C U81A, for which the self-cleavage stood at 0.04.

As for U62C U81C, the self-cleavage came out at 0.05.

Turning to U62A U102C, the self-cleavage worked out at 0.01.

As to U62A U102A, the self-cleavage was 0.01.

As for U62A U102G, the self-cleavage was 0.08.

As for U62C A94U, the self-cleavage was 0.08.

For the variant A59G U143G, the self-cleavage is 0.03.

Take A59G U143C: the self-cleavage stood at 0.1.

As to U62C G106A, the self-cleavage came out at 0.08.

In the case of A59U U104C, the self-cleavage was 1.02.

Consider G60A U100C, for which the self-cleavage was 0.03.

Take A59G U85G: the self-cleavage turned out to be 0.14.

In the case of A59G U85C, the self-cleavage is 0.09.

On to A59G U85A, for which the self-cleavage was found to be 0.04.

For C61U A94G, the self-cleavage is 0.06.

Take A59G C103U: the self-cleavage was 0.06.

As for G60A A107G, the self-cleavage was determined as 0.03.

C61A C123U: the self-cleavage turned out to be 0.03.

As for A59U A67G, the self-cleavage was 0.39.

Consider A59G U62A, for which the self-cleavage came out at 0.06.

Take A59G U62C: the self-cleavage worked out at 0.1.

For the variant U62C U132C, the self-cleavage worked out at 0.06.

Take U62C G97A: the self-cleavage stood at 0.03.

For A59U A107G, the self-cleavage stood at 1.96.

In the case of U62C G126A, the self-cleavage is 0.04.

Consider U62C G105A, for which the self-cleavage came to 0.03.

As for U62C U73C, the self-cleavage came out at 0.07.

As to G60A C68U, the self-cleavage was found to be 0.03.

In the case of C61U A67G, the self-cleavage is 1.08.

In the case of U62G A129G, the self-cleavage amounted to 0.15.

Regarding A64C A142G, the self-cleavage stood at 0.25.

As for A64C A142U, the self-cleavage worked out at 0.37.

For the variant G60C U73C, the self-cleavage came to 0.04.

U62C A107G: the self-cleavage turned out to be 0.06.

As to U62G A141G, the self-cleavage stood at 0.08.

In the case of C63U U81C, the self-cleavage was 0.4.

In the case of A59U U134G, the self-cleavage stood at 1.26.

On to G60A U115C, for which the self-cleavage came to 0.04.

Consider C63U G74A, for which the self-cleavage amounted to 0.22.

Regarding G60A U102C, the self-cleavage amounted to 0.01.

Take A64C A140G: the self-cleavage was determined as 0.24.

For the variant A59G U132C, the self-cleavage was found to be 0.11.

U62A C131U: the self-cleavage is 0.02.

On to U62C A141G, for which the self-cleavage was found to be 0.03.

C61A U102C: the self-cleavage worked out at 0.05.

Regarding C61A A107G, the self-cleavage was determined as 0.

For U62A A77G, the self-cleavage turned out to be 0.07.

Regarding U62A A77U, the self-cleavage worked out at 0.01.

As to A59G A107G, the self-cleavage was found to be 0.09.

Turning to G60A U73A, the self-cleavage came out at 0.02.

For the variant G60A U73C, the self-cleavage worked out at 0.02.

As to C63A A77G, the self-cleavage stood at 0.04.

As for A59G G126U, the self-cleavage is 0.11.

For G60A G127A, the self-cleavage turned out to be 0.03.

In the case of A59G A136U, the self-cleavage is 0.09.

(Values after the RNAGym collection of RNA variant scans (doi:10.7554/elife.90254).)
